Experiment in all cases: cell-based or functional assay
The target in test [1] is T1, Sc.Ste2, Saccharomyces cerevisiae mating GPCR Ste2 (Saccharomyces cerevisiae, UniProt D6VTK4 1-431).
T1 sequence: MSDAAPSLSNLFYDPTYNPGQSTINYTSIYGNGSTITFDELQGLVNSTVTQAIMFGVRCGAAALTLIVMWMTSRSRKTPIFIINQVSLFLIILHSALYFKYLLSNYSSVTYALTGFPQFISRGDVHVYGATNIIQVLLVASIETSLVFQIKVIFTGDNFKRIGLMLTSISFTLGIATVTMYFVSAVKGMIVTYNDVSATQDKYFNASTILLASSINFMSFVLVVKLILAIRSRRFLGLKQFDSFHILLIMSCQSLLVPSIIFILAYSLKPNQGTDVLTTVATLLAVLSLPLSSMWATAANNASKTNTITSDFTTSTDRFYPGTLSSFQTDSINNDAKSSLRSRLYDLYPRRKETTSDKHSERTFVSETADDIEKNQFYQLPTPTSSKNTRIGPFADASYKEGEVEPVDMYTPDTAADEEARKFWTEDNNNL

Test [2] concerns the target T1, Sc.Ste2, Saccharomyces cerevisiae …. This is another data set of the same source.
In test [3] the target is T2, Kp.Ste2, Ste2-like mating GPCR of Komagataella (Pichia) pastoris (Komagataella (Pichia) pastoris).
T2 chain: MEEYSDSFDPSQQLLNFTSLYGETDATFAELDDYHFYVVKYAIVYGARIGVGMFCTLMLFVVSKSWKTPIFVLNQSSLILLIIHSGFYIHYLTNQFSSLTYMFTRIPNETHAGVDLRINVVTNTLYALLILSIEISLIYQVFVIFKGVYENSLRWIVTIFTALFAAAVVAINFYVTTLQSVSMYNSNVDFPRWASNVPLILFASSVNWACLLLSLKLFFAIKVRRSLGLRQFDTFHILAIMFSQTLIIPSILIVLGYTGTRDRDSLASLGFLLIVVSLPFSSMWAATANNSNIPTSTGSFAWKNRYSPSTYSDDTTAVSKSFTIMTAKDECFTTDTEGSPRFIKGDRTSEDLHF

Test [4] concerns the target T3, Kl.Ste2, Ste2-like mating GPCR of Kluyveromyces lactis (Kluyveromyces lactis).
T3 chain: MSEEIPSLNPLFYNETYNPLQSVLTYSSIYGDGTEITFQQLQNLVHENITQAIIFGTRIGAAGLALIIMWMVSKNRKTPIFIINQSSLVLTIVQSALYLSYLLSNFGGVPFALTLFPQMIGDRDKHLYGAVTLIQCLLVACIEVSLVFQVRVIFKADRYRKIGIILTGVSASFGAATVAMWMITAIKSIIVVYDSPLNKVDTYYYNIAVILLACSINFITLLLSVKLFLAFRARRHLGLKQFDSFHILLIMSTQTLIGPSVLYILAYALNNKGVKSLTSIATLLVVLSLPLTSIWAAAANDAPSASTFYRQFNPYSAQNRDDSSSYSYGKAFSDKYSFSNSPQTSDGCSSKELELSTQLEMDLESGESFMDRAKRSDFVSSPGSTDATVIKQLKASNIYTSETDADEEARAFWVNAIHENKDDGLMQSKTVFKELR

In test [5] the target is T4, Gc.Ste2, Ste2-like mating GPCR of Geotrichum candidum (Geotrichum candidum).
T4 chain: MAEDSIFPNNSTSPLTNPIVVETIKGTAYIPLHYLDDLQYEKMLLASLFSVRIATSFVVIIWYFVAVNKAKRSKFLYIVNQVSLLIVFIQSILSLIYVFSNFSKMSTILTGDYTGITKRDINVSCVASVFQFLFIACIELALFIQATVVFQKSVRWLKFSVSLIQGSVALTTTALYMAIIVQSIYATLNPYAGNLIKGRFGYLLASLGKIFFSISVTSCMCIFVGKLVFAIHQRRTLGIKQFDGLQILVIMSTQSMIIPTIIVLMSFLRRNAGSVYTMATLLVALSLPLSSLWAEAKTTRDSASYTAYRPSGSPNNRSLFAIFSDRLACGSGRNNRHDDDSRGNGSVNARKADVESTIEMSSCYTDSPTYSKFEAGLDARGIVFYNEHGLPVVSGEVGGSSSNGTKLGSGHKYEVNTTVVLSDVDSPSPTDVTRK

Where “and” joins values, the source holds several entries; their conditions need not be identical. Identical values can stand only once. Like-named read-outs stand apart in the source and are kept apart here.

Regarding WHWLQLKPGQPMY [Sc peptide ligand #1 WHWLQLKPGQPMY (S. cerevisiae alpha-factor)], the “EC50 (FUS1p-RFP reporter)” value in test [1] was 1.25 nM and ~1 nM. Further, in test [2], the “Bttm (FUS1p-RFP reporter)” value is 36.2 fluorescence/A600 (not printed), the “EC50 (FUS1p-RFP reporter)” value was -8.9 log10 M (not printed), the “Fold Change (FUS1p-RFP reporter)” value is 7 fold and the “Span (FUS1p-RFP reporter)” value was 217 fluorescence/A600 (not printed). The “Top (FUS1p-RFP reporter)” value in test [2] is 253 fluorescence/A600 (not printed).

In the case of FRWRNNEKNQPFG [Kp peptide ligand #1 (Table 3: …)], in test [3], the “Bttm (FUS1p-RFP reporter)” value is 44.8 fluorescence/A600 (not printed), the “EC50 (FUS1p-RFP reporter)” value is -8.2 log10 M (not printed), the “Fold Change (FUS1p-RFP reporter)” value turned out to be 6 fold and the “Span (FUS1p-RFP reporter)” value is 224 fluorescence/A600 (not printed). Besides, the “Top (FUS1p-RFP reporter)” value in test [3] was 269 fluorescence/A600 (not printed).

For WSWITLRPGQPIF [Kl peptide ligand #1 WSWITLRPGQPIF], in test [4], the “Bttm (FUS1p-RFP reporter)” value was 37.2 fluorescence/A600 (not printed), the “EC50 (FUS1p-RFP reporter)” value was -7.3 log10 M (not printed), the “Fold Change (FUS1p-RFP reporter)” value was found to be 6 fold and the “Span (FUS1p-RFP reporter)” value was 186 fluorescence/A600 (not printed). The “Top (FUS1p-RFP reporter)” value in test [4] was 223 fluorescence/A600 (not printed).

For the molecule GDWGWFWYVPRPGDPAM [Gc peptide ligand #1 GDWGWFWYVPRPGDPAM], in test [5], the “Bttm (FUS1p-RFP reporter)” value is 22.9 fluorescence/A600 (not printed), the “EC50 (FUS1p-RFP reporter)” value is -6.9 log10 M (not printed), the “Fold Change (FUS1p-RFP reporter)” value is 8.2 fold and the “Span (FUS1p-RFP reporter)” value was 164 fluorescence/A600 (not printed). For the same molecule, the “Top (FUS1p-RFP reporter)” value in test [5] is 187 fluorescence/A600 (not printed).

(Values after patent US20220119825A1, “SCALABLE PEPTIDE-GPCR INT[…] SYSTEMS” (THE TRUSTEES OF COLUMBIA UNIVERSITY IN THE CITY OF NEW YORK, priority 2019, published 2022).)
